Test results reported in patent US20210032299A1 (Eli Lilly, published 2021).
Where a chain is given by its changes, count along the chain named. Starred links: 1 amine or outer side, 2 acyl side, 3 side chain; linkers in the order of their positions; H or OH if unused. Non-standard residues stand in square brackets, D forms with d. Groups on a side chain read outwards from the residue. No end group written: not given here. *: point of attachment. C20 diacid = O=C(O)CCCCCCCCCCCCCCCCCCC(=O)*; αMePhe(2-F) = C[C@](N)(Cc1ccccc1F)C(=O)O; γGlu = O=C(O)[C@H](CCC(=O)[*:2])N[*:1]; αMeF = C[C@](N)(Cc1ccccc1)C(=O)O; 4Pal = N[C@@H](Cc1ccncc1)C(=O)O; αMeL = CC(C)C[C@](C)(N)C(=O)O; AEEA = NCCOCCOCC(=O)O; Aib = CC(C)(N)C(=O)O

T1: human glucose-dependent insulinotropic polypeptide (GIP) receptor (human, UniProt P48546 22-466)
T1 construct: whole, on cells; Assayed as crude membranes of stably transfected CHO cells; also called hGIPR; human GIP receptor
T1 sequence (looked up): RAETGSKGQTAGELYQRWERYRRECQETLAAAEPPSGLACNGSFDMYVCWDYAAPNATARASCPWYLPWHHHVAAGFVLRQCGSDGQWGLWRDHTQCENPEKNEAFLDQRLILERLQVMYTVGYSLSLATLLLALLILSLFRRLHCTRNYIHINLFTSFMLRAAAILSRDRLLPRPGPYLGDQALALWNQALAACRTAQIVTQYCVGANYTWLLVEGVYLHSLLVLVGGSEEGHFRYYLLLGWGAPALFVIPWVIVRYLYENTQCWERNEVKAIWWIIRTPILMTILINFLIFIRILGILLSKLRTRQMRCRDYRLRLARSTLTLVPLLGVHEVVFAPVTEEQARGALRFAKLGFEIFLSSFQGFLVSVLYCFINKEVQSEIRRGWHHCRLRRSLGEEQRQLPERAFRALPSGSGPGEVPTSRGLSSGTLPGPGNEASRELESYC

B1: Example 51 (peptide)
peptide: Y[Aib]EGT[αMePhe(2-F)]ISDYSI[αMeL]LDKK([AEEA-AEEA-γGlu-C20 diacid])HQ[Aib]DFVE[4Pal]LLAGGPSSGAPPPS-NH2
modifications: N-terminus assumed
SMILES: CC[C@H](C)[C@H](NC(=O)[C@H](CO)NC(=O)[C@H](Cc1ccc(O)cc1)NC(=O)[C@H](CC(=O)O)NC(=O)[C@H](CO)NC(=O)[C@@H](NC(=O)[C@](C)(Cc1ccccc1F)NC(=O)[C@@H](NC(=O)CNC(=O)[C@H](CCC(=O)O)NC(=O)C(C)(C)NC(=O)[C@@H](N)Cc1ccc(O)cc1)[C@@H](C)O)[C@@H](C)CC)C(=O)N[C@@](C)(CC(C)C)C(=O)N[C@@H](CC(C)C)C(=O)N[C@@H](CC(=O)O)C(=O)N[C@@H](CCCCN)C(=O)N[C@@H](CCCCNC(=O)COCCOCCNC(=O)COCCOCCNC(=O)CC[C@H](NC(=O)CCCCCCCCCCCCCCCCCCC(=O)O)C(=O)O)C(=O)N[C@@H](Cc1c[nH]cn1)C(=O)N[C@@H](CCC(N)=O)C(=O)NC(C)(C)C(=O)N[C@@H](CC(=O)O)C(=O)N[C@@H](Cc1ccccc1)C(=O)N[C@H](C(=O)N[C@@H](CCC(=O)O)C(=O)N[C@@H](Cc1ccncc1)C(=O)N[C@@H](CC(C)C)C(=O)N[C@@H](CC(C)C)C(=O)N[C@@H](C)C(=O)NCC(=O)NCC(=O)N1CCC[C@H]1C(=O)N[C@@H](CO)C(=O)N[C@@H](CO)C(=O)NCC(=O)N[C@@H](C)C(=O)N1CCC[C@H]1C(=O)N1CCC[C@H]1C(=O)N1CCC[C@H]1C(=O)N[C@@H](CO)C(N)=O)C(C)C
B2: Example 62 (peptide)
peptide: Y[Aib]EGT[αMeF]ISDYSI[αMeL]LDKK([AEEA-AEEA-γGlu-C20 diacid])HQ[Aib]EFVE[4Pal]LLAAGPSSGAPPPS-NH2
modifications: N-terminus assumed
SMILES: CC[C@H](C)[C@H](NC(=O)[C@H](CO)NC(=O)[C@H](Cc1ccc(O)cc1)NC(=O)[C@H](CC(=O)O)NC(=O)[C@H](CO)NC(=O)[C@@H](NC(=O)[C@](C)(Cc1ccccc1)NC(=O)[C@@H](NC(=O)CNC(=O)[C@H](CCC(=O)O)NC(=O)C(C)(C)NC(=O)[C@@H](N)Cc1ccc(O)cc1)[C@@H](C)O)[C@@H](C)CC)C(=O)N[C@@](C)(CC(C)C)C(=O)N[C@@H](CC(C)C)C(=O)N[C@@H](CC(=O)O)C(=O)N[C@@H](CCCCN)C(=O)N[C@@H](CCCCNC(=O)COCCOCCNC(=O)COCCOCCNC(=O)CC[C@H](NC(=O)CCCCCCCCCCCCCCCCCCC(=O)O)C(=O)O)C(=O)N[C@@H](Cc1c[nH]cn1)C(=O)N[C@@H](CCC(N)=O)C(=O)NC(C)(C)C(=O)N[C@@H](CCC(=O)O)C(=O)N[C@@H](Cc1ccccc1)C(=O)N[C@H](C(=O)N[C@@H](CCC(=O)O)C(=O)N[C@@H](Cc1ccncc1)C(=O)N[C@@H](CC(C)C)C(=O)N[C@@H](CC(C)C)C(=O)N[C@@H](C)C(=O)N[C@@H](C)C(=O)NCC(=O)N1CCC[C@H]1C(=O)N[C@@H](CO)C(=O)N[C@@H](CO)C(=O)NCC(=O)N[C@@H](C)C(=O)N1CCC[C@H]1C(=O)N1CCC[C@H]1C(=O)N1CCC[C@H]1C(=O)N[C@@H](CO)C(N)=O)C(C)C
B3: Example 88 (peptide)
peptide: YXEGTXISDYSIXLDKKHQXDFVEXLLEAGPSSGAPPPS
modifications: Aib2; Iva6; αMeL13; K17((2-[2-(2-Amino-ethoxy)-ethoxy]-acetyl)2-(γ-Glu)-CO-(CH2)18-CO2H); Aib20; 4-Pal25; C-terminal amide
B4: Example 74 (peptide)
peptide: B3 peptide with A29G
modifications: Aib2; Iva6; αMeL13; K17((2-[2-(2-Amino-ethoxy)-ethoxy]-acetyl)2-(γ-Glu)-CO-(CH2)18-CO2H); Aib20; 4-Pal25; C-terminal amide
B5: Example 69 (peptide)
peptide: Y[Aib]EGTFISDYSI[αMeL]LDKK([AEEA-AEEA-γGlu-C20 diacid])HQ[Aib]DFVEYLLEGGPSSGAPPPS-NH2
modifications: N-terminus assumed
SMILES: CC[C@H](C)[C@H](NC(=O)[C@H](Cc1ccccc1)NC(=O)[C@@H](NC(=O)CNC(=O)[C@H](CCC(=O)O)NC(=O)C(C)(C)NC(=O)[C@@H](N)Cc1ccc(O)cc1)[C@@H](C)O)C(=O)N[C@@H](CO)C(=O)N[C@@H](CC(=O)O)C(=O)N[C@@H](Cc1ccc(O)cc1)C(=O)N[C@@H](CO)C(=O)N[C@H](C(=O)N[C@@](C)(CC(C)C)C(=O)N[C@@H](CC(C)C)C(=O)N[C@@H](CC(=O)O)C(=O)N[C@@H](CCCCN)C(=O)N[C@@H](CCCCNC(=O)COCCOCCNC(=O)COCCOCCNC(=O)CC[C@H](NC(=O)CCCCCCCCCCCCCCCCCCC(=O)O)C(=O)O)C(=O)N[C@@H](Cc1c[nH]cn1)C(=O)N[C@@H](CCC(N)=O)C(=O)NC(C)(C)C(=O)N[C@@H](CC(=O)O)C(=O)N[C@@H](Cc1ccccc1)C(=O)N[C@H](C(=O)N[C@@H](CCC(=O)O)C(=O)N[C@@H](Cc1ccc(O)cc1)C(=O)N[C@@H](CC(C)C)C(=O)N[C@@H](CC(C)C)C(=O)N[C@@H](CCC(=O)O)C(=O)NCC(=O)NCC(=O)N1CCC[C@H]1C(=O)N[C@@H](CO)C(=O)N[C@@H](CO)C(=O)NCC(=O)N[C@@H](C)C(=O)N1CCC[C@H]1C(=O)N1CCC[C@H]1C(=O)N1CCC[C@H]1C(=O)N[C@@H](CO)C(N)=O)C(C)C)[C@@H](C)CC
B6: Example 53 (peptide)
peptide: Y[Aib]EGTFISDYSI[αMeL]LDKK([AEEA-AEEA-γGlu-C20 diacid])HQ[Aib]DFVEYLLAGGPSSGAPPPS-NH2
modifications: N-terminus assumed
SMILES: CC[C@H](C)[C@H](NC(=O)[C@H](Cc1ccccc1)NC(=O)[C@@H](NC(=O)CNC(=O)[C@H](CCC(=O)O)NC(=O)C(C)(C)NC(=O)[C@@H](N)Cc1ccc(O)cc1)[C@@H](C)O)C(=O)N[C@@H](CO)C(=O)N[C@@H](CC(=O)O)C(=O)N[C@@H](Cc1ccc(O)cc1)C(=O)N[C@@H](CO)C(=O)N[C@H](C(=O)N[C@@](C)(CC(C)C)C(=O)N[C@@H](CC(C)C)C(=O)N[C@@H](CC(=O)O)C(=O)N[C@@H](CCCCN)C(=O)N[C@@H](CCCCNC(=O)COCCOCCNC(=O)COCCOCCNC(=O)CC[C@H](NC(=O)CCCCCCCCCCCCCCCCCCC(=O)O)C(=O)O)C(=O)N[C@@H](Cc1c[nH]cn1)C(=O)N[C@@H](CCC(N)=O)C(=O)NC(C)(C)C(=O)N[C@@H](CC(=O)O)C(=O)N[C@@H](Cc1ccccc1)C(=O)N[C@H](C(=O)N[C@@H](CCC(=O)O)C(=O)N[C@@H](Cc1ccc(O)cc1)C(=O)N[C@@H](CC(C)C)C(=O)N[C@@H](CC(C)C)C(=O)N[C@@H](C)C(=O)NCC(=O)NCC(=O)N1CCC[C@H]1C(=O)N[C@@H](CO)C(=O)N[C@@H](CO)C(=O)NCC(=O)N[C@@H](C)C(=O)N1CCC[C@H]1C(=O)N1CCC[C@H]1C(=O)N1CCC[C@H]1C(=O)N[C@@H](CO)C(N)=O)C(C)C)[C@@H](C)CC

How the values were obtained:
human GLP-1 receptor = biological target: T2, human GLP-1 receptor (human, UniProt P43220 24-463); experiment: SPA, displacement of [125I]-GLP-1 from hGLP-1R membranes, 0.1% bacitracin
T2 construct: whole, on cells; Assayed as crude membranes of stably transfected HEK293 cells; also called hGLP1R; hGLP-1R
How it was run: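 Binding buffer: 25 mM HEPES pH 7.4, 2.5 mM CaCl₂, 1 mM MgCl₂, 0.1% bacitracin, 0.003% Tween-20, protease inhibitors without EDTA. Four-parameter nonlinear regression; Kᵢ given as geometric mean ± SEM, n = independent replicates run on different days.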

human glucagon receptor = biological target: T3, human glucagon receptor (human, UniProt P47871 26-477); experiment: SPA, displacement of [125I]-Gcg from hGcgR membranes, 0.1% bacitracin
T3 construct: whole, on cells; Assayed as crude membranes of stably transfected HEK293 cells; also called hGcgR; GcgR
How it was run: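 Binding buffer: 25 mM HEPES pH 7.4, 2.5 mM CaCl₂, 1 mM MgCl₂, 0.003% Tween-20, protease inhibitors without EDTA. Counted by scintillation after 12 h incubation/settling at room temperature. Four-parameter nonlinear fit; Kᵢ given as geometric mean ± SEM of independent replicates run on different days.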

[1] = biological target: T1, human glucose-dependent insulinotropic …; experiment: SPA, displacement of [125I]-GIP from hGIPR membranes, 0.1% bacitracin

T3 sequence (P47871 26-477): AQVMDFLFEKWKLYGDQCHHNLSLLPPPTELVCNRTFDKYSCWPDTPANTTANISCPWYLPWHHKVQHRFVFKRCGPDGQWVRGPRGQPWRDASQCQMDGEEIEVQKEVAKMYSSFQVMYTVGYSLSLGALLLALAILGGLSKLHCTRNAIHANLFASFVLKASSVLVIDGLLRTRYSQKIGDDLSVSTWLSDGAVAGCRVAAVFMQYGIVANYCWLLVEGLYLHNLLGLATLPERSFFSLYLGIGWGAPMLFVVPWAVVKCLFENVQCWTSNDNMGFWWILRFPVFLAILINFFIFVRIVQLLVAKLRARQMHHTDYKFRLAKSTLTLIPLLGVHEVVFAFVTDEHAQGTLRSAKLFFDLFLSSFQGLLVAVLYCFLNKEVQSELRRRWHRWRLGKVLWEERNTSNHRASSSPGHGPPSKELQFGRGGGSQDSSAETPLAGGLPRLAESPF

Row | Binder | Ki (human GLP-1 receptor) [nM] | Ki (human glucagon receptor) [nM] | Ki [1] [nM]
1 | B1 | 54.1 | 26.7 | 0.0386
2 | B2 | 47.6 | 31.3 | 0.0414
3 | B3 | 261 | 788 | 0.083
4 | B4 | 395 | 511 | 0.0287
5 | B5 | 144 | 114 | 0.0406
6 | B6 | 62.9 | 152 | 0.0184
